{"source": "paper PMC9381713", "about": "“Structural features of Dnase1L3 responsible for serum antigen clearance”", "molecules": {"B1": {"name": "FAM 40-mer dsDNA (dsDNA)", "DNA 1": "GTGTTCGGACTCTGCCTCAAGACGGTAGTCAACGTGCTTG", "DNA 2": "CAAGCACGTTGACTACCGTCTTGAGGCAGAGTCCGAACAC"}, "B2": {"name": "FITC 40-mer dsDNA (dsDNA)", "DNA 1": "B1 DNA 1", "DNA 2": "B1 DNA 2"}}, "key": {"Dnase1": {"test_system": "Dnase1", "experiment": "fluorescence polarization", "conditions": "FP: 50 mM Hepes pH 7.5 (Results say pH 7.4), 100 mM NaCl, 0.1 mM EDTA (1 mM for Dnase1L3/Dnase1), 1% glycerol, 1 mM TCEP, 0.1% PEG 6000, 20 nM dsDNA, 30 min at …"}, "[1]": {"target": "T1, Dnase1L3 CTD peptide (cleaved from SH3-CTD) (human, UniProt Q13609)", "T1 chain": "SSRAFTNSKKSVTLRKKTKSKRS", "experiment": "fluorescence polarization; 100 mM NaCl, 0.1 mM EDTA; FP: 50 mM Hepes pH 7.5 (Results say pH 7.4), 100 mM NaCl, 0.1 mM EDTA (1 mM for Dnase1L3/Dnase1), 1% glycerol, 1 mM TCEP, 0.1% PEG 6000, 20 nM dsDNA, 30 min at", "conditions": "protein: recombinant; tags: TEV-cleaved from His-SH3 fusion; label: 5'-FAM on strand 1; blunt"}, "Dnase1L3 R132A": {"target": "T2, Dnase1L3 R132A (human, UniProt Q13609 21-305, R132A)", "T2 sequence": "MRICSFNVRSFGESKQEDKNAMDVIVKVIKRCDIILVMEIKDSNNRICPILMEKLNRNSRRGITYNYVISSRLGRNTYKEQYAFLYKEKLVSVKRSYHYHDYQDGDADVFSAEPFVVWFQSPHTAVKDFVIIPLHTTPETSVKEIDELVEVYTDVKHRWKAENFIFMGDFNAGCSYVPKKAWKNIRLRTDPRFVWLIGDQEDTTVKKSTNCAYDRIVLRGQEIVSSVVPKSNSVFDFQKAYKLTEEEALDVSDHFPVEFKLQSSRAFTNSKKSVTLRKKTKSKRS", "experiment": "fluorescence polarization; 1 mM EDTA; FP: 50 mM Hepes pH 7.5 (Results say pH 7.4), 100 mM NaCl, 0.1 mM EDTA (1 mM for Dnase1L3/Dnase1), 1% glycerol, 1 mM TCEP, 0.1% PEG 6000, 20 nM dsDNA, 30 min at", "conditions": "protein: recombinant; blunt"}, "Dnase1L3 WT": {"target": "T3, Dnase1L3 WT (human, UniProt Q13609 21-305)", "T3 sequence": "T2 sequence with A112R", "experiment": "fluorescence polarization; 1 mM EDTA; FP: 50 mM Hepes pH 7.5 (Results say pH 7.4), 100 mM NaCl, 0.1 mM EDTA (1 mM for Dnase1L3/Dnase1), 1% glycerol, 1 mM TCEP, 0.1% PEG 6000, 20 nM dsDNA, 30 min at", "conditions": "protein: recombinant; tags: His-MBP removed by TEV; blunt"}}, "note": "Substitutions are numbered along the chain they refer to.", "data": [{"molecule": "GTGTTCGGACTCTGCCTCAAGACGGTAGTCAACGTGCTTG (double strand) [FITC 40-mer dsDNA]", "values": [{"measurement": "Kd", "setting": "Dnase1", "value": 2.9, "unit": "µM"}]}, {"molecule": "B1", "values": [{"measurement": "Kd", "setting": "[1]", "value": 4.9, "unit": "µM"}]}, {"molecule": "B2", "values": [{"measurement": "Kd", "setting": "Dnase1L3 R132A", "value": 4.95, "unit": "µM"}, {"measurement": "Kd", "setting": "Dnase1L3 WT", "value": "0.99 ± 0.33", "unit": "µM"}]}]}
